Assay results as given in US20240180856A1, “COMPOSITIONS, […] SYSTEMS, AND METHODS USEFUL IN TUMOR […]” (published 2024).
Positions of bridges follow the written chain, without caps; N, C: chain ends. Non-standard residues stand in square brackets, D forms with d. Groups on a side chain read outwards from the residue. Primed or numbered codes have the meaning given here. No end group written: not given here. *: point of attachment. DOTA = O=C(O)CN1CCN(CC(=O)O)CCN(CC(=O)*)CCN(CC(=O)O)CC1; Biotin = O=C1N[C@H]2[C@H](CS[C@H]2CCCCC(=O)*)N1; Butanoyl(4-(4-I-phenyl)) = O=C(CCCc1ccc(I)cc1)*; Butanoyl(4-(4-MePh)) = Cc1ccc(CCCC(=O)*)cc1; Lys(N3) = [N-]=[N+]=NCCCC[C@H](N)C(=O)O; FB = fluorobenzaldehyde oxime; PEG10′ = PEG spacer, 10 units; PEG3′ = PEG spacer, 3 units; PEG7′ = PEG linker, 7 units; AO = aminooxy group, NO*; Pra = C#CC[C@H](N)C(=O)O

B1: DyLight650-labeled folate-hshta (SEQ ID NO:6) Nterm heterobiligand (peptide)
peptide: Fol-[dH][dS][dH][dT][dA]
modifications: not fully specified (C-terminus, bridges); also: DyLight 650 label, site not given here
B2: folate-kyeet Tz heterobiligand (peptide)
peptide: [dK][dY][dE][dE][dT][Lys(N3)]
modifications: triazole N-C; not fully specified (N-terminus); also: folate joined through PEG linker and Tz (triazole) attachment
B3: Compound #7327, folate-hshta-Gly-Phe-Lys(DOTA) (SEQ ID NO:6) (peptide)
peptide: [dH][dS][dH][dT][dA]GFK(DOTA)
modifications: not fully specified (residue 5, N-terminus, bridges); printed as folate-hshta-Gly-Phe-Lys(DOTA)
B4: Compound #2809, folate-hshta-PEG3-Lys(MPBA)-Lys(DOTA) (SEQ ID NO:6) (peptide)
peptide: Fol-[dH][dS][dH][dT][dA]K(Butanoyl(4-(4-MePh)))K(DOTA)
modifications: not fully specified (residue 5, bridges); printed as folate-hshta-PEG3-Lys(MPBA)-Lys(DOTA)
B5: Lys(PEG3-Folate)-deryt heterobiligand (peptide)
peptide: K[dD][dE][dR][dY][dT]
modifications: not fully specified (residue 1, C-terminus, bridges); also: macrocycle (click Pra/Az4 or amide variant), ends not placed
B6: Compound #1189, Fol-hshta-PEG3-Lys(DOTA) (peptide)
peptide: Fol-[dH][dS][dH][dT][dA]K(DOTA)
modifications: not fully specified (residue 5, bridges); printed as folate-hshta-PEG3-Lys(DOTA)
B7: folate-hshta Tz heterobiligand (peptide)
peptide: [dH][dS][dH][dT][dA][Lys(N3)]
modifications: triazole N-C; not fully specified (N-terminus); also: folate joined through PEG linker and Tz (triazole) attachment
B8: Pra(Az4-PEG3-folate)-deryt heterobiligand (peptide)
peptide: [dD][dE][dR][dY][dT][Lys(N3)]
modifications: triazole N-C; not fully specified (N-terminus); printed as Pra(Az4-PEG3-folate)-deryt; also: N-terminal Pra joined by Tz (triazole) linker to Az4-PEG3-folate

How the values were obtained:
[1] = biological target: CD-1 mouse plasma proteins; experiment: plasma protein binding, equilibrium dialysis, LC-MS/MS; control
human plasma proteins [2] = experiment: as above
[3] = biological target: His-tagged FOLR1 human recombinant protein (11241-H08H, SinoBiological) (human) (UniProt P15328); experiment: ELISA
[4] = biological target: His-tagged FOLR1 human recombinant protein (11241-H08H, SinoBiological) (human) (UniProt P15328); experiment: ELISA; remark: listed apart in the source
[5] = biological target: mouse recombinant FOLR1 (rMuFOLR1) (mouse, UniProt P35846); experiment: ELISA
[6] = biological target: FOLR1 on OVCAR3 cells (human ovarian adenocarcinoma, FOLR1 (+) cell line) (human) (UniProt P15328)
[7] = biological target: CD-1 mouse plasma proteins; experiment: plasma protein binding, equilibrium dialysis, LC-MS/MS
human plasma proteins [8] = experiment: as above
[9] = biological target: His-tagged FOLR1 human recombinant protein (11241-H08H, SinoBiological) (human) (UniProt P15328); experiment: ELISA, linker screen
[10] = biological target: His-tagged FOLR1 human recombinant protein (11241-H08H, SinoBiological) (human) (UniProt P15328); experiment: ELISA, against folate as reference
[11] = biological target: FOLR1 on OVCAR3 cells (human ovarian adenocarcinoma, FOLR1 (+) cell line) (human) (UniProt P15328); experiment: flow cytometry on OVCAR3 cells, no folate
[12] = biological target: FOLR1 on OVCAR3 cells (human ovarian adenocarcinoma, FOLR1 (+) cell line) (human) (UniProt P15328); experiment: flow cytometry on OVCAR3 cells, with 0.1 µg/mL free folate as competitor
[13] = biological target: CD-1 mouse plasma proteins; experiment: plasma protein binding; value marked (FB)
human plasma proteins [14] = experiment: plasma protein binding; value marked (FB)

Molecule | EC50 [4] [nM] | Plasma % Bound [7] [%] | Plasma % Bound (human plasma proteins [8]) [%] | further results
Octreotide Acetate (peptide) |  |  |  | Plasma % Bound [1]: 62.4%; Plasma % Bound (human plasma proteins [2]): 59.4%
[Pra][dH][dS][dH][dT][dA][Lys(N3)] (triazole N-C; also: further groups not given here) [hshta (SEQ ID NO:6) macrocyclic peptide ligand (PCC)] | 3920 |  |  | EC50 [3]: 3400 nM; EC50 [5]: 2100 nM
B1 |  |  |  | percentage of positively stained cells after acid wash (flow cytometry) [6]: 54.2%
Fol-[dH][dS][dH][dT][dA]GFK(DOTA) (not fully specified (residue 5, bridges)) [Compound #6307, Fol-hshta-PEG3-Gly-Phe-Lys(DOTA)] |  | 40.6 | 41.3 | 
{Fol-PEG7′}-[dH][dS][dH][dT][dA] (also: triazole macrocycle (Pra/Az4 click), ends not placed) [Folate-PEG7-hshta heterobiligand] |  |  |  | EC50 [9]: 1 nM
[Pra][dK][dY][dE][dE][dT][Lys(N3)] (triazole N-C) [kyeet (SEQ ID NO:9) macrocyclic peptide ligand (PCC)] | > 10000 |  |  | 
B2 | 0.149 |  |  | 
Fol-[dH][dS][dH][dT][dA][PEG10′][PEG10′]K(Biotin) (not fully specified (bridges); printed as folate-hshta) [folate-hshta (SEQ ID NO:6) NTerm heterobiligand, Folate-hshta-PEG10-PEG10-K(Biotin)] | 0.065 |  |  | EC50 [3]: 0.35 nM; EC50 [5]: 0.33 nM; EC50 [9]: 0.18 nM; fold greater affinity than folate itself [10]: 30 fold; percentage of OVCAR3 cells binding [11]: 76.6%; percentage of OVCAR3 cells binding [12]: 57%
Fol-[dH][dS][dH][dT][dA]K(Butanoyl(4-(4-I-phenyl)))GFK(DOTA) (not fully specified (residue 5, bridges)) [Compound #1307, folate-hshta-Lys(IPBA)-Gly-Phe-Lys(DOTA) (SEQ ID NO:6)] |  | 99.6 | 99.5 | 
Fol-[dH][dS][dH][dT][dA]K(DOTA)[PEG10′][PEG10′]K(Biotin) (not fully specified (some residues, bridges); printed as Folate-hshta-DOTA) [Folate-hshta-DOTA: folate-hshta with the tag Lys(DOTA)-PEG10-PEG10-Lys(Biotin)] | 0.098 |  |  | 
Fol-[dH][dS][dH][dT][dA]K(Butanoyl(4-(4-I-phenyl)))MVK(DOTA) (not fully specified (residue 5, bridges)) [Compound #1306, folate-hshta-Lys(IPBA)-M-V-Lys(DOTA) (SEQ ID NO:6)] |  | 97.1 | 97.3 | 
Fol-[dH][dS][dH][dT][dA]K(FB) (not fully specified (residue 5, bridges)) [Compound #2, Fol-hshta-PEG3-Lys(FB)] |  | 20.2 | 43 | 
B3 |  | 40.9 | 40.3 | 
Fol-G[dH][dS][dH][dT][dA] (not fully specified (residue 1, C-terminus, bridges)) [Folate-Gly-hshta heterobiligand] |  |  |  | EC50 [9]: 0.9 nM
B4 |  | 92.1 | 83.3 | 
B5 | 0.16 |  |  | 
Fol-[dH][dS][dH][dT][dA]K(Butanoyl(4-(4-MePh)))[PEG10′][PEG10′]K(Biotin) (not fully specified (some residues, bridges); printed as Folate-hshta-MPBA) [Folate-hshta-MPBA: folate-hshta with the tag Lys(4-MPBA)-PEG10-PEG10-Lys(Biotin)] | 0.11 |  |  | 
[Pra][dD][dE][dR][dY][dT][Lys(N3)] (triazole N-C; also: conjugated to folate, attachment not said) [folate-deryt (SEQ ID NO:20) heterobiligand (construct not specified)] |  |  |  | EC50 [9]: 0.28 nM
B6 |  | 29.5 | 46 | 
Fol-[dH][dS][dH][dT][dA]K(Butanoyl(4-(4-MePh)))GFK([PEG3′-DOTA]) (not fully specified (residue 5, bridges)) [Compound #3302, Fol-hshta-Lys(4-MPBA)-Gly-Phe-Lys(PEG3-DOTA)] |  | 96.5 | 94.9 | 
Fol-[dH][dS][dH][dT][dA]K(Butanoyl(4-(4-MePh)))GFK(DOTA) (not fully specified (residue 5, bridges)) [Compound #6305, folate-hshta-Lys(MPBA)-Gly-Phe-Lys(DOTA) (SEQ ID NO:6)] |  | 96.3 | 98.3 | 
B7 | 0.107 |  |  | 
Fol-P[dH][dS][dH][dT][dA] (not fully specified (residue 1, C-terminus, bridges)) [Folate-Pro-hshta heterobiligand] |  |  |  | EC50 [9]: 0.9 nM
[Pra][dD][dE][dR][dY][dT][Lys(N3)] (triazole N-C) [deryt (SEQ ID NO:20) macrocyclic peptide ligand (PCC)] | 10000 |  |  | 
B8 | 0.27 |  |  | 
Fol-[dH][dS][dH][dT][dA]GFK(AO) (not fully specified (residue 5, bridges); printed as Fol-hshta-Gly-Phe-Lys(AO)) [Compound #3303, Fol-hshta-Gly-Phe-Lys(AO)] |  |  |  | Plasma % Bound [13]: 75.5%; Plasma % Bound (human plasma proteins [14]): 81%
